T1: MPDZ_5, O75970
T1 sequence (O75970 695-796, limits assumed, looked up): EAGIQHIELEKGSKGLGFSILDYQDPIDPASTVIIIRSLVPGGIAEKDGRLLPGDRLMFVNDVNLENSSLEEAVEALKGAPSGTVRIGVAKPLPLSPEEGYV

T2: LIN7C, Q9NUP9
T2 sequence (Q9NUP9 88-185, limits assumed, looked up): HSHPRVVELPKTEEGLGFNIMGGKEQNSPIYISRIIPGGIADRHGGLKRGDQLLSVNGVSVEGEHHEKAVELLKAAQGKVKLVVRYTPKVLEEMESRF

T3: ARHGEF11, O15085
T3 sequence (O15085 42-136, limits assumed, looked up): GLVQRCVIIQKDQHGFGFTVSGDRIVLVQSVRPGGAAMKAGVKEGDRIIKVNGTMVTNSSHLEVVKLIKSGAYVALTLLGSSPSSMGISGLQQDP

T4: DFNB31_2, Q9P202
T4 sequence (Q9P202 274-371, limits assumed, looked up): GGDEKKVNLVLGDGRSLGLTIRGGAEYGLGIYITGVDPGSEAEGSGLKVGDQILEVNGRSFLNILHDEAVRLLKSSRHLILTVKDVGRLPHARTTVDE

T5: SNTA1, Q13424
T5 sequence (Q13424 82-180, limits assumed, looked up): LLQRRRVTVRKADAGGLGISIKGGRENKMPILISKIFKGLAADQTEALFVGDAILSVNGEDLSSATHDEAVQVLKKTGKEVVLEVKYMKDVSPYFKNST

T6: GRIP1_7, Q9Y3R0
T6 sequence (Q9Y3R0 999-1096, limits assumed, looked up): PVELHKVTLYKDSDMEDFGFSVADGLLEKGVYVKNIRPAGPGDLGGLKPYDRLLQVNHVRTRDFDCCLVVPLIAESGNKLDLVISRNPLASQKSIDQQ

T7: HTRA3, P83110
T7 sequence (P83110 354-453, limits assumed, looked up): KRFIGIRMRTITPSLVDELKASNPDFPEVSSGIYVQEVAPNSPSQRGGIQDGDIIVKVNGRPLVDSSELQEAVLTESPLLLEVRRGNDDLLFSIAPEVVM

T8: TX1BP3, O14907
T8 sequence (O14907 10-122, limits assumed, looked up): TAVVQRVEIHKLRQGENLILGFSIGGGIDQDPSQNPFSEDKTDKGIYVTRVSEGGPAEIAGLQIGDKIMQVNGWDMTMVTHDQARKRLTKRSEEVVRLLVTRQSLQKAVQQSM

T9: PARD3B_1, Q8TEW8
T9 sequence (Q8TEW8 196-299, limits assumed, looked up): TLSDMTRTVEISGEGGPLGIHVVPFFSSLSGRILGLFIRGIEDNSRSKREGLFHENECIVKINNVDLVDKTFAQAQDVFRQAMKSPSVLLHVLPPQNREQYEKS

T10: PDZD2_2, O15018
T10 sequence (O15018 329-429, limits assumed, looked up): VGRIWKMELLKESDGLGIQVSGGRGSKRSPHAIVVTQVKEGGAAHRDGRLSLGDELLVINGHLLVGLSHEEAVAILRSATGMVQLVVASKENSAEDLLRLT

T11: DLG3_1, Q92796
T11 sequence (Q92796 125-227, limits assumed, looked up): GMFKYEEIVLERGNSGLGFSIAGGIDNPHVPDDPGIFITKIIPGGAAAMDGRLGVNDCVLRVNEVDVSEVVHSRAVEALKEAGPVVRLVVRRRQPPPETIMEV

T12: LNX2_3, Q8N448
T12 sequence (Q8N448 463-564, limits assumed, looked up): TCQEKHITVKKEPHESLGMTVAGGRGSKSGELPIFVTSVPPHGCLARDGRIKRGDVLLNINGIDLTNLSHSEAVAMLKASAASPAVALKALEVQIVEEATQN


How the values were obtained:
Assay in all cases: holdup assay
Set-up in all cases: key: below the threshold = too weak to quantify, mostly under pKd 3.1 to 4
Details in all cases: plain residues with an end cap or a label only (N-terminal biotin on a linker: ado-ado)
[1] = target: TJP1_2, Q07157
Sequence of TJP1_2, Q07157 (Q07157 181-274): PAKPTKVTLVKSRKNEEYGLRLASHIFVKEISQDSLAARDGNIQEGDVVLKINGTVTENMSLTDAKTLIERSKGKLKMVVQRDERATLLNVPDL

[2] = target: T1, MPDZ_5, O75970
[3] = target: T2, LIN7C, Q9NUP9
[4] = target: NHERF2_2, Q15599
Sequence of NHERF2_2, Q15599 (Q15599 142-238): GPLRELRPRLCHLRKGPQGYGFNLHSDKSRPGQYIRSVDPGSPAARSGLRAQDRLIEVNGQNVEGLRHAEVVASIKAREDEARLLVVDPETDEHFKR

[5] = target: Inadl_3, Q8NI35
Sequence of Inadl_3, Q8NI35 (Q8NI35 359-469): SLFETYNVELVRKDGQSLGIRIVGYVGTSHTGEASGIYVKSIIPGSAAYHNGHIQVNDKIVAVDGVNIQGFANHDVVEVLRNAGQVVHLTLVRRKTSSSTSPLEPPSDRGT

[6] = target: T3, ARHGEF11, O15085
[7] = target: T4, DFNB31_2, Q9P202
[8] = target: T5, SNTA1, Q13424
[9] = target: T6, GRIP1_7, Q9Y3R0
[10] = target: T7, HTRA3, P83110
[11] = target: Inadl_1, Q8NI35
Sequence of Inadl_1, Q8NI35 (Q8NI35 113-229): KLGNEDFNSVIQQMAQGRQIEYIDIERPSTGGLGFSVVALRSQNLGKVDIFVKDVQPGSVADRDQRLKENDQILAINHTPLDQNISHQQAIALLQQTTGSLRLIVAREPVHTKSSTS

[12] = target: T8, TX1BP3, O14907
[13] = target: T9, PARD3B_1, Q8TEW8
[14] = target: GORASP2, Q9H8Y8
[15] = target: T10, PDZD2_2, O15018
[16] = target: T11, DLG3_1, Q92796
[17] = target: GRID2IP_2, A4D2P6
Sequence of GRID2IP_2, A4D2P6 (A4D2P6 272-370): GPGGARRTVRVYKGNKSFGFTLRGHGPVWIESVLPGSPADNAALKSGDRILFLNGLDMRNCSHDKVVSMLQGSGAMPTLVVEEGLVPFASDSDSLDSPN

[18] = target: T12, LNX2_3, Q8N448
[19] = target: Inadl_5, Q8NI35
Sequence of Inadl_5, Q8NI35 (Q8NI35 673-780): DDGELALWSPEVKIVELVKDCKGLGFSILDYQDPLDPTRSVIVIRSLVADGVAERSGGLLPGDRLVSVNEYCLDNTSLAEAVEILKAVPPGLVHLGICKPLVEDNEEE

[20] = target: GOPC, Q9HD26
[21] = target: SCRIB_2, Q14160
Sequence of SCRIB_2, Q14160 (Q14160 857-960): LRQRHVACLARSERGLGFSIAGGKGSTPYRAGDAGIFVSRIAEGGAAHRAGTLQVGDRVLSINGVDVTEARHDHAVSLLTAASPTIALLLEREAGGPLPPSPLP

[22] = target: FRMPD4, Q14CM0
Sequence of FRMPD4, Q14CM0 (Q14CM0 67-160): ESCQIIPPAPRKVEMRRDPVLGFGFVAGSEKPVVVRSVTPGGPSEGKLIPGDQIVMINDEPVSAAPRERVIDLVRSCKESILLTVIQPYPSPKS

[23] = target: FRMPD2_2, Q68DX3
Sequence of FRMPD2_2, Q68DX3 (Q68DX3 944-1038): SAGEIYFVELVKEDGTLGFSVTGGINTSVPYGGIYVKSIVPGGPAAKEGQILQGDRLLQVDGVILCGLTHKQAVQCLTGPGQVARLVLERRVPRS

[24] = target: LAP2, Q96RT1
Sequence of LAP2, Q96RT1 (Q96RT1 other isoform, or with tags, fused parts or gaps): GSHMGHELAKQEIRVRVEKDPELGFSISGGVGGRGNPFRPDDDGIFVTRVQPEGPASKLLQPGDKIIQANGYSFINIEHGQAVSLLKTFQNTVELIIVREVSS

pKd [1] | pKd [2] | pKd [3] | pKd [4] | pKd [5] | pKd [6] | pKd [7] | pKd [8] | pKd [9] | pKd [10] | pKd [11] | pKd [12] | pKd [13] | pKd [14] | pKd [15] | pKd [16] | pKd [17] | pKd [18] | pKd [19] | pKd [20] | Binder | other results
below the threshold | below the threshold | below the threshold | 4.39 | below the threshold | 4.25 | below the threshold | 3.77 | below the threshold | below the threshold | below the threshold | below the threshold | 4.31 | below the threshold | below the threshold | below the threshold | 4.25 | below the threshold | below the threshold | 4.91 | WAKEKQHTRL [SLC17A1, Q14916] | pKd [21]: below the threshold; pKd [22]: 3.97; pKd [23]: below the threshold; pKd [24]: below the threshold
below the threshold | below the threshold | below the threshold | below the threshold | below the threshold | 3.58 | below the threshold | 3.68 | below the threshold | below the threshold | below the threshold | below the threshold | below the threshold | 3.61 | 4.99 | below the threshold | 3.96 | below the threshold | below the threshold | 3.59 | GVHSNDHSVV [LPAR1, Q92633] | pKd [21]: below the threshold; pKd [22]: below the threshold; pKd [23]: below the threshold; pKd [24]: below the threshold
below the threshold | below the threshold | 3.52 | below the threshold | below the threshold | 5.03 | below the threshold | below the threshold | below the threshold | below the threshold | below the threshold | 4.29 | below the threshold | 3.92 | 4.34 | below the threshold | 3.72 | below the threshold | below the threshold | 3.74 | YAEKRMLTEV [KCNA6, P17658] | pKd [21]: below the threshold; pKd [22]: below the threshold; pKd [23]: below the threshold; pKd [24]: below the threshold
4.69 | 4.2 | 4.15 | below the threshold | 3.58 | 3.8 | below the threshold | below the threshold | 5.63 | 5.46 | 4.09 | 4.19 | 3.71 | 5.82 | 5.45 | below the threshold | 3.75 | below the threshold | 4.31 | below the threshold | PALKNGQYWV [CSPG4, Q6UVK1] | pKd [21]: below the threshold; pKd [22]: 3.68; pKd [23]: below the threshold; pKd [24]: 3.75

— PMC9482650, “Quantitative fragmentomics allow affinity mapping of interactomes” (Nature Communications, 2022)
